# Measured values taken from publication PMC5308896, “A conformational switch regulates the ubiquitin ligase HUWE1” (eLife, 2017).
# Ends that are not written are not given here.
# T1: HUWE1 (3810–4374) (human, UniProt Q7Z6Z7 3810-4374)
# T1 construct: source: LOBSTR RIL cells, purified (IMAC, gel filtration)
# T1 sequence (looked up): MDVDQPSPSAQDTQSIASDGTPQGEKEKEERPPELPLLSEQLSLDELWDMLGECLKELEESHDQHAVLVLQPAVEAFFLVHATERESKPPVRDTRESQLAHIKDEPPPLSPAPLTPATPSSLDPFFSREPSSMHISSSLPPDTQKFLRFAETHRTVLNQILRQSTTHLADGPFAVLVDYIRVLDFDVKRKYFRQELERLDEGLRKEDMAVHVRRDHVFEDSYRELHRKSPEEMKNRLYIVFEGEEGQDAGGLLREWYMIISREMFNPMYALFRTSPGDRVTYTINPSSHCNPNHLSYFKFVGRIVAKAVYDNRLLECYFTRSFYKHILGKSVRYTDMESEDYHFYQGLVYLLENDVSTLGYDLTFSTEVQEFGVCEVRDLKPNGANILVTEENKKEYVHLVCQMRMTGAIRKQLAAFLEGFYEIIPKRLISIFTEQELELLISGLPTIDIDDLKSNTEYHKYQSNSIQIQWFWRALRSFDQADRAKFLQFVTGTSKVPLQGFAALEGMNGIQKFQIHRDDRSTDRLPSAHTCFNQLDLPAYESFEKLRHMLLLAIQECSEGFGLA
# T2: HUWE1 (3951–4374), untagged (human, UniProt Q7Z6Z7 3951-4374)
# T2 construct: Monomer MW 49.752 kDa (AUC methods); source: LOBSTR RIL cells, purified (IMAC, TEV protease cleavage, second IMAC, gel filtration); not shown: His6, N-terminal, cleaved
# T2 sequence (looked up): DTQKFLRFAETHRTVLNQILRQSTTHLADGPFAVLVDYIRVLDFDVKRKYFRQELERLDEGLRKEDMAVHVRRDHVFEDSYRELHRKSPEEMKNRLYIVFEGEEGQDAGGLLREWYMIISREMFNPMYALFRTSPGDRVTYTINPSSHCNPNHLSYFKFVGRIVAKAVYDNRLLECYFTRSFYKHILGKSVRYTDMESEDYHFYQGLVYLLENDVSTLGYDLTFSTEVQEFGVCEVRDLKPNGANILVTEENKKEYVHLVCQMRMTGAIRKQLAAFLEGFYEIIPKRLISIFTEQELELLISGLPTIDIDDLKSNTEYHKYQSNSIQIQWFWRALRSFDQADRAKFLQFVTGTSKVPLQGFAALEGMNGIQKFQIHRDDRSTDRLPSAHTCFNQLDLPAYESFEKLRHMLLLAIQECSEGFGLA
# T3: MBP-tagged activation segment of HUWE1 (residues 3843–3902) (human, UniProt Q7Z6Z7 3843-3902)
# T3 construct: pETM41: N-terminal TEV protease-cleavable MBP-tag, C-terminal 3C protease-cleavable His6-tag; source: E. coli BL21(DE3), purified (IMAC, gel filtration); not shown: MBP, N-terminal, kept; His6, C-terminal, kept
# T3 sequence (looked up): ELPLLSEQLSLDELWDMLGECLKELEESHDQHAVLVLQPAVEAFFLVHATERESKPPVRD
# T4: HUWE1 (3843–4374) (human, UniProt Q7Z6Z7 3843-4374)
# T4 construct: source: LOBSTR RIL cells, purified (IMAC, gel filtration)
# T4 sequence (looked up): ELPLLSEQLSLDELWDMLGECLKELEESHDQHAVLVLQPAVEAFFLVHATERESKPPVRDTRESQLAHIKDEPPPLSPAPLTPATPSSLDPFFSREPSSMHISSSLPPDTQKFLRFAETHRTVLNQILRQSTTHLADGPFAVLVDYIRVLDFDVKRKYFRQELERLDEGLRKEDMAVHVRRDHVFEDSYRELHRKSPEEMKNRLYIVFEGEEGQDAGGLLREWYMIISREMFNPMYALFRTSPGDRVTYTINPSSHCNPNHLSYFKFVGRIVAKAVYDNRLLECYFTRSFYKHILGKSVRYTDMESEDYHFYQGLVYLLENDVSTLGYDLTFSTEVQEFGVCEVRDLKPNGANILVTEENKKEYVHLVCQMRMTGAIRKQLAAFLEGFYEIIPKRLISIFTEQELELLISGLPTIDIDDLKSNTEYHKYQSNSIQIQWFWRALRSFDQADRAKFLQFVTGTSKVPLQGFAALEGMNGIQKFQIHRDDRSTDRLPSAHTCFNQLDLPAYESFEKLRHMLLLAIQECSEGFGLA
# How the values were obtained:
# Test in all cases: fluorescence polarisation; apparent KD; constant 1 μM TAMRA-labelled p14ARF (45–64) peptide titrated with HUWE1 protein; 25°C, 20 mM HEPES pH 8.0, 150 mM NaCl, 10% glycerol, 1 mM EDTA, 5 mM DTT; three independent experiments
# Conditions in all cases: both partners purified
# HUWE1 (3810–4374) = target: T1, HUWE1 (3810–4374)
# [1] = target: T2, HUWE1 (3951–4374), untagged
# [2] = target: T3, MBP-tagged activation segment of HUWE1 …
# HUWE1 (3843–4374) = target: T4, HUWE1 (3843–4374)
binder,measurement,setting,value
"LVLMLLRSQRLGQQPLPRRPK(TAMRA) (p14ARF (alternative reading frame product of CDKN2A), human, residues 45–64; additional lysine residue at the C-terminus that carries the TAMRA label (told in words); also called p14ARF-peptide; p14ARF (45-64); source: synthetic peptide, bought: Elim Biopharm) [fluorophor-labeled p14ARF-derived peptide (residues 45–64), TAMRA-labelled]",Kd,HUWE1 (3810–4374),6 ± 1 µM
same,Kd,[1],280 ± 40 µM
same,Kd,[2],3.6 ± 0.2 µM
same,Kd,HUWE1 (3843–4374),5.2 ± 0.2 µM
